B1: Kinase suppressor of Ras 1 (Mus musculus), Q61097 (parent)
chain: MDRAALRAAAMGEKKEGGGGGAAADGGAGAAVSRALQQCGQLQKLIDISIGSLRGLRTKCSVSNDLTQQEIRTLEAKLVKYICKQQQSKLSVTPSDRTAELNSYPRFSDWLYIFNVRPEVVQEIPQELTLDALLEMDEAKAKEMLRRWGASTEECSRLQQALTCLRKVTGLGGEHKMDSGWSSTDARDSSLGPPMDMLSSLGRAGASTQGPRSISVSALPASDSPVPGLSEGLSDSCIPLHTSGRLTPRALHSFITPPTTPQLRRHAKLKPPRTPPPPSRKVFQLLPSFPTLTRSKSHESQLGNRIDDVTPMKFELPHGSPQLVRRDIGLSVTHRFSTKSWLSQVCNVCQKSMIFGVKCKHCRLKCHNKCTKEAPACRITFLPLARLRRTESVPSDINNPVDRAAEPHFGTLPKALTKKEHPPAMNLDSSSNPSSTTSSTPSSPAPFLTSSNPSSATTPPNPSPGQRDSRFSFPDISACSQAAPLSSTADSTRLDDQPKTDVLGVHEAEAEEPEAGKSEAEDDEEDEVDDLPSSRRPWRGPISRKASQTSVYLQEWDIPFEQVELGEPIGQGRWGRVHRGRWHGEVAIRLLEMDGHNQDHLKLFKKEVMNYRQTRHENVVLFMGACMNPPHLAIITSFCKGRTLHSFVRDPKTSLDINKTRQIAQEIIKGMGYLHAKGIVHKDLKSKNVFYDNGKVVITDFGLFGISGVVREERRENQLKLSHDWLCYLAPEIVREMIPGRDEDQLPFSKAADVYAFGTVWYELQARDWPFKHQPAEALIWQIGSGEGVRRVLASVSLGKEVGEILSACWAFDLQERPSFSLLMDMLERLPKLNRRLSHPGHFWKSADINSSKVMPRFERFGLGTLESGNPKM

Variants of: B1
Conditions: with VRK2, Q86Y07-1
Chain of VRK2, Q86Y07-1 (Q86Y07 whole entry): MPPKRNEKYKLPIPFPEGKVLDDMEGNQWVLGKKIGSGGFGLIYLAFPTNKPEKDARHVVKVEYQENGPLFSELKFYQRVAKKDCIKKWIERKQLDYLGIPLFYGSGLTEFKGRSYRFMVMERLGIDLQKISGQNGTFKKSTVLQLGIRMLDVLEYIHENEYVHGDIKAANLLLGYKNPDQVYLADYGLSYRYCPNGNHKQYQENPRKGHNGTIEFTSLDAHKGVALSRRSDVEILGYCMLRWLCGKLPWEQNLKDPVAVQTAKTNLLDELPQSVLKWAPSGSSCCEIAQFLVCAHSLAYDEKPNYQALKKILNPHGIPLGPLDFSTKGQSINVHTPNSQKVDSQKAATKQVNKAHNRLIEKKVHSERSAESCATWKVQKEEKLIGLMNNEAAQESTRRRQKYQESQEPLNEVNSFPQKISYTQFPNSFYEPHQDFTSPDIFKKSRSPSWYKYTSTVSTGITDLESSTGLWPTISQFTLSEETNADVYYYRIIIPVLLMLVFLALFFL

effect of a mutation on the interaction | Variant
decreasing interaction | C809Y

From IntAct's records for PubMed 22752157
